Experiments:
[1] = tested on: L929 cells (mouse fibroblasts) bearing the TNFR1 receptor; assay: Cytotoxicity on L929 cells (Cytotox kit, Promega); assay type: cell-based
Procedure: L929 cells (mouse fibroblasts) were cultured in DMEM medium (PanEco, RA) supplemented with 10% fetal bovine serum (HyClone, United States). The culture was obtained from the bank of cell lines of the Blokhin Russian Cancer Research Center of the Russian Academy of Medical Sciences. To measure cytotoxicity, proteins and protein complexes were added to the L929 culture at a concentration of 1 nM, unless a different concentration was specified, and incubated for 3 or 20 h. Cytotoxicity was measured using a Cytotox kit (Promega, United States) according to the manufacturer’s method. To inhibit cytotoxicity, blocking antibodies to TNFR1 were used at a concentration of 10 μg/mL (Invitrogen, United States). Data from 5 different experiments are used.

Hsp70 = conditions: shown previously; read-out: dissociation constant for Hsp70; cited from earlier work
Procedure: For 17.1–HspBP1, equal to 3.91 nM is also close to these values. […] It can be assumed that the lack of cytotoxic activity inTag7–HspBP1 is associated with its dissociation upon interaction with cells. Thus, a correlation between the affinity of protei ...

HspBP1 = biological target: T1, HspBP1 (Homo sapiens, UniProt Q9NZL4); assay: Microscale thermophoresis, binding to Alexa Fluor 633-labeled HspBP1; conditions: labeled HspBP1 200 nM, 20 min incubation, room temperature, 16 concentrations, triplicate; read-out: dissociation constant of the complex with HspBP1, thermophoresis
T1 construct: made in house
T1 sequence (Q9NZL4 1-359): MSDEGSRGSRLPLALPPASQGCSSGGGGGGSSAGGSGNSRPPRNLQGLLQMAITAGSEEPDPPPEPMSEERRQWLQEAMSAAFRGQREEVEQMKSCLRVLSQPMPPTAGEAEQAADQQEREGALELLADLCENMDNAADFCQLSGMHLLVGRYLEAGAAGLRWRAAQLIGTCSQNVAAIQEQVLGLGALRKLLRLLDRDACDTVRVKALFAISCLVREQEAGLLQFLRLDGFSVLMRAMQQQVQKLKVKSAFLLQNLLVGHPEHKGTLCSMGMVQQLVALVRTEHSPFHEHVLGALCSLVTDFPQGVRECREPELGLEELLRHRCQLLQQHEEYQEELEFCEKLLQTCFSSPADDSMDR
Procedure: Purified HspBP1 was fluorescently labeled using Alexa Fluor 633 (Eugene, OR, United States) according to the manufacturer’s instructions. HspBP1 (200 nM) was incubated for 20 min with each compound in the dark at room temperature at 16 different concentrations obtained by serial dilution starting with the highest soluble concentration. Samples were loaded into glass capillaries (Monolith NT Capillaries) and analyzed by thermophoresis using a Monolith NT 115 nanotemperature instrument (IR laser power 10%). The signal quality was monitored with a NanoTemper Monolith instrument to detect possible ligand autofluorescence, precipitation, aggregation, or ligand-induced changes in photobleaching rate. Experiments were performed in triplicate and processed using affinity analysis software (MO Control v.1.6.1, Nano-Temper).

**Q.** Which “cytotoxic activity (time not given)” value [1] does the source give for “Tag7–HspBP1 complex: complex of the Tag7 protein with the HspBP1 protein” here?
**A.** does not have cytotoxic activity

**Q.** What about the “cytotoxic activity after 3 h of incubation” value ([1]; complexes at 1 nM, 3 h (apoptosis), 5 experiments) of the same molecule?
**A.** did not have cytotoxic activity

**Q.** What about the “cytotoxic activity after 20 h of incubation” value ([1]; complexes at 1 nM, 20 h (necroptosis), 5 experiments) of the same molecule?
**A.** did not have cytotoxic activity

B1: HspBP1: recombinant co-chaperone that regulates the ATPase activity of Hsp70 (protein, UniProt Q9NZL4 1-359, looked up)
Hsp70-binding protein 1: MSDEGSRGSRLPLALPPASQGCSSGGGGGGSSAGGSGNSRPPRNLQGLLQMAITAGSEEPDPPPEPMSEERRQWLQEAMSAAFRGQREEVEQMKSCLRVLSQPMPPTAGEAEQAADQQEREGALELLADLCENMDNAADFCQLSGMHLLVGRYLEAGAAGLRWRAAQLIGTCSQNVAAIQEQVLGLGALRKLLRLLDRDACDTVRVKALFAISCLVREQEAGLLQFLRLDGFSVLMRAMQQQVQKLKVKSAFLLQNLLVGHPEHKGTLCSMGMVQQLVALVRTEHSPFHEHVLGALCSLVTDFPQGVRECREPELGLEELLRHRCQLLQQHEEYQEELEFCEKLLQTCFSSPADDSMDR
**Q.** Which “effect on the cytotoxic activity of the Tag7–Hsp70 complex” value ([1]; increasing concentration of HspBP1, Fig. 1a) does the source give for B1 here?
**A.** inhibits the cytotoxic activity of the Tag7–Hsp70 complex in a dose-dependent manner

B2: Tag7: innate immunity protein Tag7, a ligand for the TNFR1 receptor (protein, UniProt O75594 1-196, looked up)
chain: MSRRSMLLAWALPSLLRLGAAQETEDPACCSPIVPRNEWKALASECAQHLSLPLRYVVVSHTAGSSCNTPASCQQQARNVQHYHMKTLGWCDVGYNFLIGEDGLVYEGRGWNFTGAHSGHLWNPMSIGISFMGNYMDRVPTPQAIRAAQGLLACGVAQGALRSNYVLKGHRDVQRTLSPGNQLYHLIQNWPHYRSP
modifications: full-length
notes: innate immunity protein Tag7, a ligand for the TNFR1 receptor
**Q.** With B2 as the molecule, how does the Kd (Hsp70) read?
**A.** 1.73 nM

**Q.** What about the Kd (HspBP1) of the same molecule?
**A.** 328 nM

Reference: PMC11021269, “HspBP1 in Complex with the Peptide of the Innate Immunity Protein Tag7 is Able to Lyse Tumor Cells Carrying TNFR1 Receptor” (Doklady. Biochemistry and Biophysics, 2024)
